For the data set, the system named is O=P(O)(O)OP(=O)(O)O. Description: cells, lysate or membranes. As to conditions: 0 mM added NaCl, 100 mM KCl, pH 7.2, 30 °C, Mg2PPi substrate without excess Mg2+, Na+ from Na4PPi present.

Data on 1 substance can be found in article PMC7438732, “The H^+-Translocating Inorganic Pyrophosphatase From Arabidopsis thaliana Is More Sensitive to Sodium Than Its Na^+-Translocating Counterpart From Methanosarcina mazei” (Frontiers in Plant Science, 2020).

Sequence of MVP (Methanosarcina mazei Go1) (chain, as listed by the source): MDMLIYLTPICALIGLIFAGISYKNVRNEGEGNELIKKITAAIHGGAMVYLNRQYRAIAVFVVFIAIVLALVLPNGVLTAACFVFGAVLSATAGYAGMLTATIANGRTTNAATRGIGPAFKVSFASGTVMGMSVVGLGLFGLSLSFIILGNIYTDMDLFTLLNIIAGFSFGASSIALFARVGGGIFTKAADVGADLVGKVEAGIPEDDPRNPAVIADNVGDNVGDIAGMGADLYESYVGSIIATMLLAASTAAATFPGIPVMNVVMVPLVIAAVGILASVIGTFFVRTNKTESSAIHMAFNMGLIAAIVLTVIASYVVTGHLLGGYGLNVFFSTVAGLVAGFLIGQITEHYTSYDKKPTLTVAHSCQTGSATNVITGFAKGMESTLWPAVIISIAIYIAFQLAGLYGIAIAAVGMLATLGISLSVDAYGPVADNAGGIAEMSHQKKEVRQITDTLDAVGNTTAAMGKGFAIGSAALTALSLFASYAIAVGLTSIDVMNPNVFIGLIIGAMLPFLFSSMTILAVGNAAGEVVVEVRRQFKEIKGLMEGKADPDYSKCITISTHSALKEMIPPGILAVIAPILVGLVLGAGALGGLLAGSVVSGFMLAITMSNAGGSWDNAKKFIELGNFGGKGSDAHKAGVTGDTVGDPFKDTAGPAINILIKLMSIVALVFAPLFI

Substance MVP (Methanosarcina mazei Go1) yielded a K0.5 of 0.27 ± 0.27 mM.
